In patent publication US20260201058A1 (SICHUAN HUIYU PHARMACEUTICAL, published 2026):
Substitutions are numbered along the chain they refer to. Where two headings read alike, the source gives them in different places.

Columns and labels:
[1] = target: T1, human PD-L1 protein (ACRO, PD1-H5258) (human, UniProt Q9NZQ7 19-238); test: Carterra HC30M chip, nanobody captured via anti-DYKDDDDK, PD-L1 as analyte
T1 construct: Bought protein; also called Human PDL1-Fc
From the text: (§1) Kinetic constants were obtained by fitting with Carteria software.

[2] = target: T2, monkey PD-L1 protein (Kactus Biosystems, PDL-CM210) (monkey); test: as above
T2 construct: Bought protein; also called Monkey PDL1-Fc
From the text: as §1

[3] = target: T3, mouse PD-L1 protein (ACRO, PD1-M5251) (mouse, UniProt Q9EP73 19-238); test: as above
T3 construct: Bought protein; also called Mouse PDL1-Fc
From the text: as §1

[4] = target: T4, mouse PD-L1 on CHO-mPDL1 cells (mouse, UniProt Q9EP73 19-290); test: flow cytometry competition on CHO-mPDL1 cells, competitor mouse PD-1-hFc 1.25 ug/mL
T4 construct: whole, on cells
Experimental: (§2) CHO-huPDL1, CHO-mPDL1, and CHO-cynoPDL1 cells were respectively taken, washed with PBS, and resuspended with 1% BSA. Then 1×10⁵ cells per well were added to a 96-well V-bottom plate. […] After washing with PBS, PE anti-human Fc (Biolegend, 410708) was added and incubated on ice for 30 min. After washing with PBS, a flow cytometer was used for detection. IC₅₀ was fitted with experimental data by GraphPad Prism.

[5] = target: T5, human PD-L1 on CHO-huPDL1 cells (human, UniProt Q9NZQ7 19-290); test: flow cytometry competition on CHO-huPDL1 cells, competitor human PD-1-hFc 1.25 ug/mL
T5 construct: whole, on cells; also called CHO-hPDL1
Experimental: as §2

[6] = target: T6, monkey PD-L1 (Cyno-PD-L1) on cells (monkey (cyno)); test: flow cytometry competition on CHO-cynoPDL1 cells, competitor monkey PD-1-hFc 1.25 ug/mL
T6 construct: whole, on cells; also called CHO-cynoPDL1; 293F-cyno PD-L1 cells
Experimental: as §2

[7] = target: T7, human PD-L1 on GS-C2 cells (cells overexpressing human PD-L1, GenScript, M00613) (human, UniProt Q9NZQ7 19-290); test: cell-based or functional assay
[8] = target: T7, human PD-L1 on GS-C2 cells (cells …); test: flow cytometry on GS-C2 cells
Experimental: Then PE-labeled goat anti-Flag fluorescent secondary antibody was added, and incubated on ice for 30 min. After washing with PBS, a flow cytometer was used for detection. EC₅₀ was fitted with the experimental data by GraphPad Prism.

[9] = target: T1, human PD-L1 protein (ACRO, PD1-H5258); test: SPR (Carterra LSA), nanobody on NiHC200M chip via His-Tag, PD-L1 as analyte
Experimental: The measurement was conducted using a capture kinetics process. The test antibody was immobilized on the surface of the NiHC200M chip via His-Tag. After several rounds of blank buffer injection and stabilizing the detection baseline, human PD-L1 protein was injected as the analyte. Each round of injection consisted of 2 minutes of baseline, 8 minutes of binding, and 20 minutes of dissociation. After subtracting the reference point and zero concentration signal (Double Reference) from the original measurement data, the binding curve was fitted by Carterra LSA Kinetics software and the kinetic parameters were calculated.

[10] = target: T7, human PD-L1 on GS-C2 cells (cells …); test: flow cytometry competition on GS-C2 cells, competitor human PD-1-mFc 1.25 ug/mL
From the text: (§3) After washing with PBS, a flow cytometer was used for detection. IC₅₀ was fitted with experimental data by GraphPad Prism.

[11] = target: T6, monkey PD-L1 (Cyno-PD-L1) on cells; test: flow cytometry competition on 293F-cyno PD-L1 cells, competitor monkey PD-1-hFc 1.25 ug/mL
From the text: as §3

[12] = target: T7, human PD-L1 on GS-C2 cells (cells …); test: cell-based or functional assay; remark: listed apart in the source
[13] = target: T7, human PD-L1 on GS-C2 cells (cells …); test: flow cytometry on GS-C2 cells; remark: listed apart in the source
From the text: (§4) After washing with PBS, a flow cytometer was used for detection.

[14] = target: T6, monkey PD-L1 (Cyno-PD-L1) on cells; test: flow cytometry on 293F-cyno PD-L1 cells
From the text: as §4

[15] = target: T7, human PD-L1 on GS-C2 cells (cells …); test: flow cytometry competition on GS-C2 cells, competitor human PD-1-mFc 1.25 ug/mL; remark: listed apart in the source
From the text: as §4

[16] = target: T1, human PD-L1 protein (ACRO, PD1-H5258); test: Carterra HC30M chip, antibody captured via anti-DYKDDDDK, PD-L1 as analyte
Experimental: (§5) The anti-[…] antibody was bound to the HC30M chip via amino coupling, then […] of humanized PD-L1 single-domain antibody was captured. After the baseline was stabilized, gradient diluted human PD-L1 protein (ACRO, PD1-H5258) and monkey PD-L1 protein (Kactus Biosystems, PDL-CM210) (starting from 100 nM, gradient dilution) were flowed over the chip from low to high concentrations, with a binding time of 8 minutes and a dissociation time of 20 minutes. Kinetic constants were obtained by fitting with Carteria software.

[17] = target: T2, monkey PD-L1 protein (Kactus …); test: as above
Experimental: as §5

T1 sequence (Q9NZQ7 19-238): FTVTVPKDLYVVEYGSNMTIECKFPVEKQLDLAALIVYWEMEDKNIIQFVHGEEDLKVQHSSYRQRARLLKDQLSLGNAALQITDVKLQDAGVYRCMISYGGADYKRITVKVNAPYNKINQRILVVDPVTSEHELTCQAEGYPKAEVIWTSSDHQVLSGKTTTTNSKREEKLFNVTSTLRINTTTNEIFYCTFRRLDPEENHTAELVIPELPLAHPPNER
T7 sequence (Q9NZQ7 19-290, one chain of several): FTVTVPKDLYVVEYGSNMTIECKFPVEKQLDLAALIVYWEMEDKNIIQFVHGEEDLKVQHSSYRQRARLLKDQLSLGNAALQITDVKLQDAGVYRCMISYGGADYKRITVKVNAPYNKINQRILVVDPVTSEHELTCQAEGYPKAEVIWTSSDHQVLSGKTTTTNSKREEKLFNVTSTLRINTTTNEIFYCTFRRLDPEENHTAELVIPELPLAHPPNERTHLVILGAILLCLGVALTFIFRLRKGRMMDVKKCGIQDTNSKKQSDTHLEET
T3 sequence (Q9EP73 19-238): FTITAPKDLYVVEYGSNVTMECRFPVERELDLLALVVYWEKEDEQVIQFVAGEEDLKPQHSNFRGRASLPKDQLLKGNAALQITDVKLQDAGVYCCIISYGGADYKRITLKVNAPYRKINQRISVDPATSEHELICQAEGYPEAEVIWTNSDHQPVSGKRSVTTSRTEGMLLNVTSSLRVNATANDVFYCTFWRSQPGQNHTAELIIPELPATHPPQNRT
T4 sequence (Q9EP73 19-290): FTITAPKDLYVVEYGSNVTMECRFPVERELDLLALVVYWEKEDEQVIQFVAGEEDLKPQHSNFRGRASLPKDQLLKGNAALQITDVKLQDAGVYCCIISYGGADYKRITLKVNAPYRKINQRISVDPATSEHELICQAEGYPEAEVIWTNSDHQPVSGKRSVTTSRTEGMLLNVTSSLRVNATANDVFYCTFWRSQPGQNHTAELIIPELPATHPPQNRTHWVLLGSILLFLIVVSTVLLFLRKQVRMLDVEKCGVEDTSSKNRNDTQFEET
T5 sequence (Q9NZQ7 19-290): as the sequence (Q9NZQ7 19-290, one chain of several) above

B1: 4A7 nanobody (VHH)
VHH: EVQLVESGGGLVQAGDSLRLGCAASGRTFSTNVMGWFRQAPGKEREFVSAISRAGSTYSADSVKGRFTISRDNAENTVYLQMNSLKPEDTAVYYCAAGSSPTAIFGKSGMDYWGKGTLVTVSS
notes: Prokaryotically expressed VHH; also called anti-PD-L1 nanobody 4A7
- Kd [1]: 147 nM
- Kd [2]: 221 nM
- Kd [3]: 99.1 nM
- IC50 [4]: 1.83 nM
- IC50 [5]: 1.35 nM
- IC50 [6]: 3.55 nM

B2: 260-7-B11 nanobody (VHH)
VHH: EVQLVESGGGLVQAGGSLRLSCAASGGTFLTYGMGWFRQAPGKEREFVAAINWSGSMTNYADSVKGRSTISRDNARNTVYLQMISLKPEDTAVYYCAAKTGAVAYIQKNEYDYWGQGTQVTVSS
notes: Prokaryotically expressed VHH
- EC50 (nM), blocking of T cell PD-1/PD-L1 signaling pathway (GS-C2 cells with Jurket-NFAT-PD1 cells, luciferase) [7]: 15.3 nM
- EC50 [8]: 0.739 nM
- Kd [9]: 0.0243 nM
- IC50 [10]: 0.396 nM
- IC50 [11]: 0.627 nM

B3: 7B11 (Fc fusion)
chain: EVQLVESGGGLVQAGGSLRLSCAASGGTFLTYGMGWFRQAPGKEREFVAAINWSGSMTNYADSVKGRSTISRDNARNTVYLQMISLKPEDTAVYYCAAKTGAVAYIQKNEYDYWGQGTQVTVSSGGGGSGGGGSDKTHTCPPCPAPEAAGAPSVFLFPPKPKDTLMISRTPEVTCVVVDVSHEDPEVKFNWYVDGVEVHNAKTKPREEQYNSTYRVVSVLTVLHQDWLNGKEYKCAVSNKALPAPIEKTISKAKGQPREPQVYTLPPSRDELTKNQVSLTCLVKGFYPSDIAVEWESNGQPENNYKTTPPVLDSDGSFFLYSKLTVDKSRWQQGNVFSCSVMHEALHNHYTQKSLSLSP
notes: also called 7B11 VHH-Fc antibody (260-7-B11 fused to human IgG1 Fc)
- EC50 (nM), blocking of T cell PD-1/PD-L1 signaling pathway (GS-C2 cells with Jurket-NFAT-PD1 cells, luciferase) [12]: 2.11 nM
- EC50 [13]: 0.642 nM
- EC50 [14]: 1.58 nM
- IC50 [15]: 0.221 nM

B4: 7B11_huGS_HM4 (Fc fusion)
chain: B3 chain with A14P, E44G, R45L, S68F, R76K, I84N, K87R, P88A
notes: Humanized VHH-Fc antibody
- EC50 (nM), blocking of T cell PD-1/PD-L1 signaling pathway (GS-C2 cells with Jurket-NFAT-PD1 cells, luciferase) [12]: 1.97 nM
- EC50 [13]: 0.729 nM
- EC50 [14]: 2 nM
- Kd [16]: 0.035 nM
- Kd [17]: 0.0326 nM
- IC50 [15]: 0.24 nM
